# Measurements: patent US20160017022A1 (CORNELL UNIVERSITY, published 2016)
# B1: mouse MAL (endogenous, in wild-type mouse tissues; absent in MAL KO mice) (receptor)
# chain: MAPAAASGGSTLPSGFSVFTTFPDLLFVCEFVFGGLVWILIASSLVPLPLAQGWVMFVSVFCFVATTSLMILYIIGTHGGETSWITLDAAYHCVAALFYLSASVLEALATISMFDGFTYKHYHENIAAVVFAYVVTLIYVVHAVFSLIRWKSS
# notes: whole, on cells
# Target: Alexa 594 labeled His-tagged protoxin (Clostridium perfringens epsilon protoxin) (Clostridium perfringens, UniProt Q02307 33-328)
# Assay: fluorescent toxin staining, MAL loss-of-function mouse
binder,measurement,value
B1,binding result,binds
